Assay results published in paper PMC6557901, “Rif1 S-acylation mediates DNA double-strand break repair at the inner nuclear membrane”.

Biological target: T1, Rif1 NTD (100-1322) C466A/C473A (Saccharomyces cerevisiae, UniProt P29539 100-1322, C466A;C473A)
T1 sequence: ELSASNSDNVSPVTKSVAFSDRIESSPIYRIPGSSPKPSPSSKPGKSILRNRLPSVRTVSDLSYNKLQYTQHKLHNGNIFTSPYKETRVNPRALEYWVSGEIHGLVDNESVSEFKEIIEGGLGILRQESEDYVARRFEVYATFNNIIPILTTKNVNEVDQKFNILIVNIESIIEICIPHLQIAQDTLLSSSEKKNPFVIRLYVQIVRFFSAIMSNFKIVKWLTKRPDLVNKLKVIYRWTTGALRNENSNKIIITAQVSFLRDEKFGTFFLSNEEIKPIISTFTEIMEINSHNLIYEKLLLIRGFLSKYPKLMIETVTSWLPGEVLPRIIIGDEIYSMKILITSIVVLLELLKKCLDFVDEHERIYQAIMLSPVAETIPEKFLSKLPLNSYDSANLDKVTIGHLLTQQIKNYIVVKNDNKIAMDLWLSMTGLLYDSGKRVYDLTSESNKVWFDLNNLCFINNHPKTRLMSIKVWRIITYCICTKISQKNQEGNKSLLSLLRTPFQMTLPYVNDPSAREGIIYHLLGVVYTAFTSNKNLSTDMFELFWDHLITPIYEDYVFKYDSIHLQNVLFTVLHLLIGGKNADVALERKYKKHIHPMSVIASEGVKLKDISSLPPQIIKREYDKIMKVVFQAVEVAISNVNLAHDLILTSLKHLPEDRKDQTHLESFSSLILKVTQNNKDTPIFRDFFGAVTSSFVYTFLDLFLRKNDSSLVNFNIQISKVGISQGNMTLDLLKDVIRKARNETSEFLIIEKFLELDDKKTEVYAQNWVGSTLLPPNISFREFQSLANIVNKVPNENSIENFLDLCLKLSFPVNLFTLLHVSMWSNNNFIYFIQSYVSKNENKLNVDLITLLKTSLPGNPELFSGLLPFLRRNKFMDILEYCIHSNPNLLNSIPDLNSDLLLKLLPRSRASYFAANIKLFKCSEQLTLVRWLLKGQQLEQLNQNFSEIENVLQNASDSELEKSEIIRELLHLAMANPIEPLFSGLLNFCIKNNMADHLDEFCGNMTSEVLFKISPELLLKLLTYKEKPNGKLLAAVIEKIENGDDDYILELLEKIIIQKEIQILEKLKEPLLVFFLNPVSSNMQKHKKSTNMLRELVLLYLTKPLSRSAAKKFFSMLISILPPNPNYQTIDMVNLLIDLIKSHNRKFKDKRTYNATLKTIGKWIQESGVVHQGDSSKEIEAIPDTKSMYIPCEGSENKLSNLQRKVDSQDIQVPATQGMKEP
Experiment: EMSA; protein 10-160 nM, DNA 1 nM; apparent affinity similar to wild-type; 20 mM Tris-HCl pH 8.0, 100 mM NaCl, 2.5 mM MgCl2, 10 mM CaCl2, 0.1 mg/ml BSA, 1 mM TCEP, 30 min at 20 °C; 1.2% agarose gel, 0.5x TBE, 4 °C
Details: protein: recombinant; tags: N-terminal Strep(II); label: 5'-32P on EMSA1; blunt

B1: 30 bp dsDNA (EMSA1/EMSA2) (dsDNA)
DNA 1: TAGCAAGGCACTGGTAGAATTCGGCAGCGT
DNA 2: ACGCTGCCGAATTCTACCAGTGCCTTGCTA
binding result: binds
